The nanobody polyreactivity screen of Harvey et al. (2022)

Test: yeast display, Sf9 membrane polyspecificity reagent, FACS + sequencing; frameworks hold sequencing errors
How it was run: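 Genes from sorted yeast were amplified by colony PCR, read by MiSeq 2 × 250 sequencing and filtered on CDR length. These cells carried a synthetic nanobody library in Saccharomyces cerevisiae BJ5465 and were sorted by FACS into low and high (top ~1%) gates on anti-HA and streptavidin fluorescence. Polyreactivity is labelled according to the gate of origin.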

Row | Sequence | polyreactivity (PSR sort gate)
1 | QVQLVESGGGLVQAGGSLRLSCAASGRIFYYNPMGWYRQAPGKERELVAAITKSGGRTYYADSVKGRFTISRDNSKNTVYLQMYSLKPEDTAVYYCAALSRAGEYDYWGQGTQVTVSS | high polyreactivity
2 | QVQLVESGGGLVQAGGSLRLSCAASGRIFYYNSMGWYREAPGKERELVAAIRSGGGSTYYADSVKGRFTISRDNAKNTVYLQMNSLKPEDTAVYYCAAEPSQRYPWSGYDYWGQGTQVTVSS | low polyreactivity
3 | QVQLVESGGGLVQAGGSLRLSCAASGRIFYYNVMGWYRQAPGKEREFVAAISTRTGSTYYADSVKGRFTISRDNAKNTVYLQMNSLKPEDTAVYYCAAPYRAYSYDYWGQGTQVTVSS | high polyreactivity
4 | QVQLVESGGGLVQAGGSLRLSCAASGRIFYYNVMGWYRQAPGKERELVASISYSSTRTYYADSVKGRFTISRDNAKNTVYLQMNSLKPEDTAVYYCAVDTYAYRGVSYWSERTYYYWGQGTQVTVSS | low polyreactivity
5 | QVQLVESGGGLVQAGGSLRLSCAASGRIFYYYAMAWYRQAPGKERELVAAITRRGGSTYYADSVKGRFTISRDIAKNTVYFQMNSLKPEDTAVYYCAKPDRTGWLDGDYWGQGTQVTVSS | low polyreactivity
6 | QVQLVESGGGLVQAGGSLRLSCAASGRIFYYYAMGRYRQAPGKERELVAAITQSGGSTYYADSVKGRFTISRDNAKNTVYLQMNSLKPEDTAVYYCNAVLSSNTKWRYPGDYWGQGTQVTVSS | low polyreactivity
7 | QVQLVESGGGLVQAGGSLRLSCAASGRIFYYYAMGWYREAPGKEREFVARNRSSGGSTYADSVKGRFTISRDNAKNTVYLQMNSLKPEDTAVYYCARDGYTAVEYDYWGQGTQVTVSS | low polyreactivity
8 | QVQLVESGGGLVQAGGSLRLSCAASGRIFYYYAMGWYRQAPGKEREFVAAITGRGGSTYYADSVKGRFTISRDNAKNTVYLQMNSLKPEDTAVYYCNAGQYFEYYGWYSRYGYWGQGTQVTVSS | low polyreactivity
9 | QVQLVESGGGLVQAGGSLRLSCAASGRIFYYYAMGWYRQAPGKEREFVAAITGRGGSTYYADSVKGRFTISRDNEKNTVYLQMYSLKPEDTAVYYCNAGQYFEYYGWYSRYGYWGQGTQVTVSS | low polyreactivity
10 | QVQLVESGGGLVQAGGSLRLSCAASGRIFYYYAMGWYRQAPGKERELVAAINRSGGSTYYADSVKGRFTISRDNAKNTVYLQMNSLKPEDTAVYYCASYDYWGQGTQVTVSS | high polyreactivity
11 | QVQLVESGGGLVQAGGSLRLSCAASGRIFYYYAMGWYRQAPGKERELVAAISQRGGRTYYADSVKGRFTISRDNAKNTVYLQMYSLNQEDPAVYYCNVAGVVYPWYYYWGQGTQVTVSS | high polyreactivity
12 | QVQLVESGGGLVQAGGSLRLSCAASGRIFYYYAMGWYRQAPGKERELVAGIDSGDSTNYADSVKGRFTISRDNAKNTVYLQLNSLKPEDTAVYYCAALHYGGYFSYYPYYYWGQGTQVTVSS | low polyreactivity
13 | QVQLVESGGGLVQAGGSLRLSCAASGRIFYYYAMGWYRQAPGKERELVATISRAGITNYADSVKGRFTISRDNAKNTVYLQMNSLKPEDTAVYYCADTFYPWRYNYEYWGQGTQVTVSS | high polyreactivity
14 | QVQLVESGGGLVQAGGSLRLSCAASGRIFYYYAMGWYRQAPGKERELVAVISRGGRTKYADSVKGRFTISRDNAKNTVYLQMNSLKPEDTAFYYCAAYPSYYGDSGLRYDYWGQGTQVPVSS | high polyreactivity
15 | QVQLVESGGGLVQAGGSLRLSCAASGRIFYYYAMGWYRQAPGTERELVASINSVGTTTYADSVKGRFTISRDNAKNTVYLEMNSLKPEDTAVYYCARDTGSIYYDGYEYDYWGQGTQVTVSS | low polyreactivity
16 | QVQLVESGGGLVQAGGSLRLSCAASGRIFYYYAMLWYRQAPGKERELVAAIRRGGSTNYADSVKGRFTISRDNAKNTVYLQMNSLKPEETAVYYCAARSARLEYYYWGQGTQVTVSS | high polyreactivity
17 | QVQLVESGGGLVQAGGSLRLSCAASGRIFYYYGMGWYRQAPGKERELVAAISNGGRTYYADSVKGRFTISRDNAKNTVYLQMTSLKPEDTAVYYCAALTRGRGGYDYWGQGTQVTVSS | high polyreactivity
18 | QVQLVESGGGLVQAGGSLRLSCAASGRIFYYYPMGWYRQAPGKEMELVARITGLTGRTYYADSVKGRFTISRDNSKNTVYLHMHSLKPQDTAVYYCAATDRWSRLGYWGQGTQVTVSS | high polyreactivity
19 | QVQLVESGGGLVQAGGSLRLSCAASGRIFYYYVMGWYRQAPGKERELVATITKRGGDTYYADSVKGRFTISRDNAKNTVYLQMNSLKPEDTAVYYCAAVYLYYSRSDLYDYWGQGTQVTVSS | low polyreactivity
20 | QVQLVESGGGLVQAGGSLRLSCAASGRIGAYAMGWYRQAPGKERELVAAIRWSTGSTYYADSVKGRFTISRDNAKNTVFLQMNSLKPEDTAVYYCAAEFVRRGGDFWGQGTQVTVSS | high polyreactivity
21 | QVQLVESGGGLVQAGGSLRLSCAASGRIGRYAMGWYRQAPGKERELVAAITWSGGSTYYADSVKGRFTISRDNAKNTVYLQMNSLKPEDTAVYYCATGRYRDQPRTGYDYWGQGTQVTVSS | high polyreactivity
22 | QVQLVESGGGLVQAGGSLRLSCAASGRIHVYTMRWYRQAPGQERELVAAITWSGTSTNYADSVKGRFTLSRDNAKNTVYLKMNILKPEDTAVYYCAADISGVLSVSNVRGFDYWGQGTQVTVSS | low polyreactivity

Row | Sequence | polyreactivity (PSR sort gate)
23 | QVQLVESGGGLVQAGGSLRLSCAASGRIIADNAMGWYRQAPGKERELVATISSGGSTSYADSVKGRFTLSRDNAKNTVYLQMNSLKPEDTAVYYCATPFTGPSGPYDYWGQGTQGTVSS | low polyreactivity
24 | QVQLVESGGGLVQAGGSLRLSCAASGRIIALNAMGWYRQAPGKERELVAAISRRGGSTYYADSVKGRFTISRDNAKNTVYLQMNSLKPEDTAVYYCATDSVRYGYDYWGQGTQVTVSS | high polyreactivity
25 | QVQLVESGGGLVQAGGSLRLSCAASGRIIARNAMGWYRQAPGKEREFVAAITARGARTYYADSVKGRFTISRDNAKNTVYLQMNSLKPEDTAVYYCAVVQGNVYYTGDDYWGQGTQVTVSS | high polyreactivity
26 | QVQLVESGGGLVQAGGSLRLSCAASGRIIAVYAMGWYRQAPGKERELVATIRGGGSTNYADSVKGRFTISRDNAKNTVYLQMNSLKPEDTAVYYCAALGGRYRASTYGYWGQGTQVTVSS | high polyreactivity
27 | QVQLVESGGGLVQAGGSLRLSCAASGRIIGFYAMGRYRQAPGKERELFAAINTGGGTNYADSVKGRFTISRDNAKNTVYLQMNSLKPEDTAVYYCAARTYDYRARHKVGYWGQGTQVTVSS | high polyreactivity
28 | QVQLVESGGGLVQAGGSLRLSCAASGRIIGPYTMGWYRQAPGKEMEFVAAITRRGGSTYYADSVKGRFTISRDNAKNTVYLQMNSLKPEDTEVYYCAAVGQKRSLGYSWGQGTQVTVSS | low polyreactivity
29 | QVQLVESGGGLVQAGGSLRLSCAASGRIIIYNAMGWYRQAPGKERQLVAAINRSGVSTHYADSVKGRFTISRDNAKNTVYLQMNSLKPEDTAVYYCARTVYGARSYDYWGQGTQVTVSS | low polyreactivity
30 | QVQLVESGGGLVQAGGSLRLSCAASGRIILDYAMGWYRQAPGKERELVAAITWRGGSTNYADSVKGRFTISRDNAKNTVYLQMNSLKPEDTAVYYCNADPDDQYDYWGQGTQVTVSS | low polyreactivity
31 | QVQLVESGGGLVQAGGSLRLSCAASGRIINDYTMGWYRQAPGKERELVAAITTSTGSTYADSVKGRFTISRDNAKNTVYLQMNSLKPEDTAVYYCAADSRPGKYYEDDSWGQGTQVTVSS | low polyreactivity
32 | QVQLVESGGGLVQAGGSLRLSCAASGRIIQRNTMGWYRQAPGKERELVAAISGSTGRTYYADSVKGRFTISRDNAKNTVYLQMNSLKPEDTAVYYCNTVGRSSSLSVFLIGYGYWGQGTQVTVSS | high polyreactivity
33 | QVQLVESGGGLVQAGGSLRLSCAASGRIIRAYAMGWYRQAPGKERELVAAISGGSNTNYADSVKGRFKISRDNAKNTVYLQMNSLKPDDTAVYYCAADAGYWESLWYPYGFYWGQGTQVSVSS | low polyreactivity
34 | QVQLVESGGGLVQAGGSLRLSCAASGRIIRIYTMGWYRQARGKERELVAAITKSGGSTSYADSVKGRFTISRDNAKNTVYLQMNSLKPEDTAVYYCNAKGWTRPPGYDYWGQGTQVTVSS | high polyreactivity
35 | QVQLVESGGGLVQAGGSLRLSCAASGRIIRYYVMGWYRQAPGKEREFVASISGRGASTYYADSVKGRFTISRDNAKNTVYLQMNSLKPEDTAVYYWNKESYFDTYRRYDSWGQGTQVTVSS | low polyreactivity
36 | QVQLVESGGGLVQAGGSLRLSCAASGRIISSYAMGWYRQAPGKERELVAAITSSGGSTYYADSVKGRFTISRDNAKNTVYLQMNSLKPEDTAVYYCAARVFARYYTAYGVETRREEDYWGQGTQLTVSS | low polyreactivity
37 | QVQLVESGGGLVQAGGSLRLSCAASGRIISVNAMGWYRQAPGKERELVAAITTRGGTPYYADSVKGRFTISRDNAKNTVSLQMNSLKPEDTAVYYCAAESSWSVYWEWAHDYWGQGTQVTVSS | low polyreactivity
38 | QVQLVESGGGLVQAGGSLRLSCAASGRIITFNPMGWYRQAPGKERELVAAISSRGDGTYYADSVKGRYTISRDNAKNSFYVQMNSLKPEDTAVYYCARYPDDYYDWGYDYWGHGTQVTVSS | low polyreactivity
39 | QVQLVESGGGLVQAGGSLRLSCAASGRIIWSYAMGWYRQAPGKERELVAAIRSGGTTDYADSVKGRFTISRDNAKNTVYLQMNSLKPEDTAVYYCAADPYSVYGGDYWGQGTQVTVSS | low polyreactivity
40 | QVQLVESGGGLVQAGGSLRLSCAASGRIIYIYAMGWYRQAPGKERELVAAITASSGSTNYADSVKGRFTISRDNAKNTVYLQMNSLKPEDTAVYYCAAAPSRTLLRQSKYYYWGQGTQVTVSS | low polyreactivity
41 | QVQLVESGGGLVQAGGSLRLSCAASGRIIYRYAMGWYRQAPGKERELVAAISYRGGSTYYADSVKGRFTISRDNAKNTVYLQMNSLKPEDTAVYYCAADRRYYDWRYGGFDYWGQGTQVTVSS | high polyreactivity
42 | QVQLVESGGGLVQAGGSLRLSCAASGRILATYTMGWYRQAPGKERELVATITSGGRTTYADSVKGRFTISRDNAKNTVYLQMNSLKPEDTAVYYCNVANWYYRKYRPLWGRDYYWGQGTQVTVSS | high polyreactivity
43 | QVQLVESGGGLVQAGGSLRLSCAASGRILGKNALGWYRQAPGKEREWVADISGRGDRTHYADSVKGRFTISRDNAKNTVYLQMNSLNAEYTAVYYCAKYHHPPGKGQSVSLGYDFWGQGTQVTVSS | low polyreactivity
